Assay results taken from article PMC7743911 (Nature communications, 2015).
Values joined by “and” are separate entries in the source; they are usually repeats but may differ in a detail not shown here. Identical values can stand only once. Non-standard residues stand in square brackets, D forms with d. No end group written: not given here. pY = N[C@@H](Cc1ccc(OP(=O)(O)O)cc1)C(=O)O

What was measured:
[1] = molecular target: T1, STAT5B N642H mutant (residues 128 to 717), non-phosphorylated (human, UniProt P51692 128-717, N642H); assay: SPR
T1 sequence (looked up): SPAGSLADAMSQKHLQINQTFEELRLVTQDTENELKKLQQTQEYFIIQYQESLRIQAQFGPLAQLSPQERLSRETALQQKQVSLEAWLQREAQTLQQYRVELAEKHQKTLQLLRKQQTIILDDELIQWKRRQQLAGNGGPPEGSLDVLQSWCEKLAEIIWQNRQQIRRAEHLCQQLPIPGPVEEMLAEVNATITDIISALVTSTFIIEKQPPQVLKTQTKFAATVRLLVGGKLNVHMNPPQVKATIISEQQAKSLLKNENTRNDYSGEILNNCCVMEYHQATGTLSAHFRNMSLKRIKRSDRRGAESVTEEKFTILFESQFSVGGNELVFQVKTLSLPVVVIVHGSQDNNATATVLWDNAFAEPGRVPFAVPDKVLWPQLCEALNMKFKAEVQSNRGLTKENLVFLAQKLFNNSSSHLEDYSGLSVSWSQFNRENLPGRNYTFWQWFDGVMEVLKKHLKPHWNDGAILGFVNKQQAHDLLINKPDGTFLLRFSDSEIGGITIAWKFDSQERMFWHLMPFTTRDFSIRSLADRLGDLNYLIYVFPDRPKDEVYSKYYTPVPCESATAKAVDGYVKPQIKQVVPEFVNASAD

[2] = molecular target: T2, STAT5B wild type (residues 128 to 717), non-phosphorylated (human, UniProt P51692 128-717); assay: SPR
T2 sequence (looked up): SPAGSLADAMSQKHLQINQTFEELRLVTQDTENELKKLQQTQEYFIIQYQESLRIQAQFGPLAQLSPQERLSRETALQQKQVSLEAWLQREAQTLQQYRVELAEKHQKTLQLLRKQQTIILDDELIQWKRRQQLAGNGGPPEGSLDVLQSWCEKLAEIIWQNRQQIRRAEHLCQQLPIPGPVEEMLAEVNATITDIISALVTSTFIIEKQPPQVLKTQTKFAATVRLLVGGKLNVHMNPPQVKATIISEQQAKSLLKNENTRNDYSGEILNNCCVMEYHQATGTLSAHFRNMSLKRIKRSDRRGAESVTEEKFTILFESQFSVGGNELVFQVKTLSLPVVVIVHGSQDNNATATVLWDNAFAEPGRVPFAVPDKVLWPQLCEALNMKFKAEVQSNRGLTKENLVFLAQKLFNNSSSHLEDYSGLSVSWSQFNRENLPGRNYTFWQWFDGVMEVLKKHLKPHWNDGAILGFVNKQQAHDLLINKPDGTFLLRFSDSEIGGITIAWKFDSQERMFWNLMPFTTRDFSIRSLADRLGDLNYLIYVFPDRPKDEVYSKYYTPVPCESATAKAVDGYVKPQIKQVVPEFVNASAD

B1: STAT5B phosphopeptide KAVDG(p)YVKPQI (peptide)
peptide: KAVDG[pY]VKPQI
Kd [1]: 3.23 µM and 2.9 µM | Kd [2]: 15.6 µM and 14 µM
